Results reported in patent US20210079074A1 (Alector, published 2021).
Positions count from the first letter of the chain named. Numbers in names are those of the source.

T1: FcγRIIa receptor (H131 variant) (UniProt P12318 34-317, limits assumed)
T1 sequence (looked up): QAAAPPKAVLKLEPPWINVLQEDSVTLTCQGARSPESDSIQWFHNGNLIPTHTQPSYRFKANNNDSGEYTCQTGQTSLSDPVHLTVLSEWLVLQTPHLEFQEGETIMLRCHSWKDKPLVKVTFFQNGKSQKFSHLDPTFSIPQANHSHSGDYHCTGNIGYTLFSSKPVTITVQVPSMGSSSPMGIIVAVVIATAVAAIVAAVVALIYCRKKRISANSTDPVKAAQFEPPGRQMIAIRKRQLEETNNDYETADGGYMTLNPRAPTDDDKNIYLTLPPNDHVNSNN

B1: anti-MS4A4A antibody 4A-306 (antibody, human IgG1, V domains shown)
VH: QVQLVQSGAEVKKPGASVKVSCKASGYTFTNYWMQWVRQAPGQGLEWMGATHPGHGDTRYAQKFQGRVTMTRDTSTSTVYMELSSLRSEDTAVYYCAREEVYYGFRSYWYFDVWGRGTLVTVSS
VL: DIQMTQSPSSLSASVGDRVTITCRASESVDNYGVSFMNWYQQKPGKAPKLLIYGASNQGSGVPSRFSGSGSGTDFTLTISSLQPEDFATYYCQQSKEVPPTFGGGTKVEIK
notes: human IgG1/kappa
B2: anti-MS4A4A antibody 4A-313 K322A huIgG1 (antibody)
heavy: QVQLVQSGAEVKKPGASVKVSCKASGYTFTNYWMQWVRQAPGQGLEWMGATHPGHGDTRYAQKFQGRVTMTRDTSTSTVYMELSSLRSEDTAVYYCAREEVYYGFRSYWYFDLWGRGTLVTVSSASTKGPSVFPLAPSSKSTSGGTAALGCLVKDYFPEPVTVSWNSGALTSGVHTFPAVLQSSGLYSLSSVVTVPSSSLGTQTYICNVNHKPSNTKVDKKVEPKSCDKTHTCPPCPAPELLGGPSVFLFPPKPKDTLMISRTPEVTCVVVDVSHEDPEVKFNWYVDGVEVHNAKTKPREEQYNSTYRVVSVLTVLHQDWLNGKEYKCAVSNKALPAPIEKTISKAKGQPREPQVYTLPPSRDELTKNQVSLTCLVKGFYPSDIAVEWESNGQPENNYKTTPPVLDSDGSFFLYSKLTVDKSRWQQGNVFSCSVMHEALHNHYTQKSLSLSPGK
light: EIVLTQSPATLSLSPGERATLSCRASESVDNYGVSRMNWYQQKPGQAPRLLIYGASNQGSGIPARFSGSGSGTDFTLTISSLEPEDFAVYYCQQSKEVPPTFGGGTKVEIKRTVAAPSVFIFPPSDEQLKSGTASVVCLLNNFYPREAKVQWKVDNALQSGNSQESVTEQDSKDSTYSLSSTLTLSKADYEKHKVYACEVTHQGLSSPVTKSFNRGEC
B3: anti-MS4A4A antibody 4A-305 (antibody, human IgG1, V domains shown)
VH: EVQLVQSGAEVKKPGATVKISCKVSGYTFTNYWMQWVQQAPGKGLEWMGATHPGHGDTRYAEKFQGRVTITADTSTDTAYMELSSLRSEDTAVYYCAREEVYYGFRSYWYFDVWGRGTLVTVSS
VL: DIVMTQSPDSLAVSLGERATINCRASESVDNYGVSFMNWYQQKPGQPPKLLIYGASNQGSGVPDRFSGSGSGTDFTLTISSLQAEDVAVYYCQQSKEVPPTFGGGTKVEIK
notes: human IgG1/kappa
B4: anti-MS4A4A antibody 4A-303 (antibody, human IgG1, V domains shown)
VH: EVQLVQSGAEVKKPGESLKISCKGSGYTFTNYWMQWVRQMPGKGLEWMGATHPGHGDTRYSPSFQGQVTISADKSISTAYLQWSSLKASDTAMYYCAREEVYYGFRSYWYFDVWGRGTLVTVSS
VL: B3 VL
notes: human IgG1/kappa
B5: anti-MS4A4A antibody 4A-307 (antibody, human IgG1, V domains shown)
VH: B1 VH with R72A, T74K
VL: B3 VL
notes: human IgG1/kappa
B6: anti-MS4A4A antibody 4A-311 (antibody, human IgG1, V domains shown)
VH: B3 VH with T74K, D77S
VL: B3 VL
notes: human IgG1/kappa
B7: anti-MS4A4A antibody 4A-310 (antibody, human IgG1, V domains shown)
VH: B4 VH with I76S
VL: B3 VL
notes: human IgG1/kappa
B8: anti-MS4A4A antibody 4A-333 (antibody, human IgG1, V domains shown)
VH: QVQLVQSGSELKKPGASVKVSCKASGYIFTSYGLSWVRQAPGQGLEWMGWINTYSGVPTYAQGFTGRFVFSLDTSVSTTYLQISSLKAEDTAVYYCARSLVDYWGQGTLVTVSS
VL: DVVMTQSPLSLPVTLGQPASISCKSSQSLLYSDGKTYLSWFQQRPGQSPRRLIYLVSKLDSGVPDRFSGSGSGTDFTLKISRVEAEDVGVYYCWQGIDFHQTFGGGTKVEIK
notes: humanized 4A-21; human IgG1/kappa
B9: anti-MS4A4A antibody 4A-341 (antibody, human IgG1, V domains shown)
VH: QVQLVQSGAEVKKPGASVKVSCKASGYIFTSYGLSWVRQAPGQRLEWMGWINTYSGVPTYSQKFQGRVTITRDTSASTAYMELSSLRSEDTAVYYCARSLVDYWGQGTLVTVSS
VL: B8 VL with S7T, P12S, L15P, F41Y, Q42L, R44K, S48P, R50Q, R51L
notes: as for B8
B10: anti-MS4A4A antibody 4A-346 (antibody, human IgG1, V domains shown)
VH: B9 VH with R44G, S61A, I70M, A76T, A79V
VL: B8 VL with V2I, S7T, P12S, L15P, F41Y, Q42L, R44K, S48P, R50Q, R51L
notes: as for B8
B11: anti-MS4A4A antibody 4A-348 (antibody, human IgG1, V domains shown)
VH: B9 VH with V2I, R44G, S61A, I70M, A76T, A79V
VL: B8 VL with V2I, S7T, P12S, L15P, F41Y, Q42L, R44K, S48P, R50Q, R51L
notes: as for B8
B12: anti-MS4A4A antibody 4A-343 (antibody, human IgG1, V domains shown)
VH: B9 VH with V2I, R44G, S61A, I70M, R72L, A76T, A79T
VL: B8 VL with S7T, P12S, L15P, F41Y, Q42L, R44K, S48P, R50Q
notes: as for B8
B13: anti-MS4A4A antibody 4A-335 (antibody, human IgG1, V domains shown)
VH: B8 VH with T79A
VL: B8 VL with S7T, L11S, F41L, S48P, R51L, S72A
notes: as for B8
B14: anti-MS4A4A antibody 4A-339 (antibody, human IgG1, V domains shown)
VH: B8 VH
VL: B8 VL with S7T, L11S, F41L, S48P, S72A
notes: as for B8
B15: anti-MS4A4A antibody 4A-347 (antibody, human IgG1, V domains shown)
VH: B9 VH with R72L, A79T
VL: B8 VL with V2I, S7T, P12S, L15P, F41Y, Q42L, R44K, S48P, R50Q, R51L
notes: as for B8
B16: anti-MS4A4A antibody 4A-342 (antibody, human IgG1, V domains shown)
VH: B9 VH with V2I, R44G, S61A, I70M, A76T, A79V
VL: B8 VL with S7T, P12S, L15P, F41Y, Q42L, R44K, S48P, R50Q
notes: as for B8
B17: anti-MS4A4A antibody 4A-337 (antibody, human IgG1, V domains shown)
VH: B8 VH
VL: B8 VL with V2I, S7T, L11S, F41L, S48P, R51L, S72A
notes: as for B8
B18: anti-MS4A4A antibody 4A-338 (antibody, human IgG1, V domains shown)
VH: B8 VH
VL: B8 VL with S7T, L11S, F41L, S48P, R51L, S72A
notes: as for B8
B19: anti-MS4A4A antibody 4A-334 (antibody, human IgG1, V domains shown)
VH: B8 VH with T79A
VL: B8 VL with V2I, S7T, L11S, F41L, S48P, R51L, S72A
notes: as for B8
B20: anti-MS4A4A antibody 4A-336 (antibody, human IgG1, V domains shown)
VH: B8 VH with T79A
VL: B8 VL with S7T, L11S, F41L, S48P, S72A
notes: as for B8
B21: anti-MS4A4A antibody 4A-344 (antibody, human IgG1, V domains shown)
VH: B9 VH with R44G, S61A, I70M, A76T, A79V
VL: B8 VL with S7T, P12S, L15P, F41Y, Q42L, R44K, S48P, R50Q
notes: as for B8
B22: anti-MS4A4A antibody 4A-340 (antibody, human IgG1, V domains shown)
VH: B9 VH with R72L, A79T
VL: B8 VL with S7T, P12S, L15P, F41Y, Q42L, R44K, S48P, R50Q, R51L
notes: as for B8
B23: anti-MS4A4A antibody 4A-345 (antibody, human IgG1, V domains shown)
VH: B9 VH
VL: B8 VL with V2I, S7T, P12S, L15P, F41Y, Q42L, R44K, S48P, R50Q, R51L
notes: as for B8

Columns and labels:
[1] = target: T2, recombinant MS4A4A soluble polypeptide JS1; assay: ELISA, 1 ug/ml antibody
T2 construct: also called JS1.His; loop grafted antigen
Method: Anti-MS4A4A antibodies of the present disclosure were tested for their ability to bind to the different recombinant MS4A4A soluble polypeptides, as described in Example 2, as follows. Nucleic acid encoding the VH and VL domains of humanized anti-MS4A4A antibodies of the present disclosure were cloned into pcDNA3.4 vector which contains either the human IgG1 heavy chain constant domain or human kappa constant domain. The humanized anti-MS4A4A antibodies were expressed in Expi293 cells and were purified by Mab select antibody purification resin (GE Healthcare Life Science, cat#17519902) following the manufacture's protocol. ELISA was performed to measure binding of anti-MS4A4A antibodies of the present disclosure the recombinant MS4A4A soluble polypeptides. 1 μg/ml biotinylated antigens were preincubated on the streptavidin-coated ELISA plates (Thermo Scientific, cat#PI15120) for 1 hour. Plates were washed 3 times, followed by the addition of antibodies (1 μg/ml, 0.33 μg/ml, and 0.11 μg/ml antibodies. Plates were incubated at room temperature with shaking for 1 hr, washed 3 times, then 1/2500 dilution of HRP conjugates goat anti human kappa antibodies added (SigmaAldrich cat#. A7164-1ML).

[2] = target: T1, FcγRIIa receptor (H131 variant); assay: cell-based or functional assay
[3] = target: FcγRIIIa receptor (V158 variant) (UniProt P08637 17-254); assay: cell-based or functional assay
human MS4A4A = human MS4A4A (human, UniProt Q96JQ5 1-239); assay: FACS, U937-huMS4A4A, 5 ug/ml
Method: Anti-MS4A4A antibodies tested were either mouse IgGs purified from hybridoma supernatant or human IgG1 Fc chimeras produced recombinantly in Expi293 cells. Affinity binding to cells was determined as follows. Briefly, cells were harvested, washed, and labeled with Aqua Live/Dead for viability discrimination. After a wash with PBS, 2×10\hat{ }4 cells were aliquoted per well in 96-well U-bottom plates and incubated with 50 μL of purified anti-MS4A4A antibody at various concentrations (3× dilutions starting at 10 μg/mL) in FACS buffer (PBS+2% FBS+1 mM EDTA). After this primary incubation, the supernatant was removed via centrifugation, washed 2× with 150 μL of ice-cold FACS buffer, and incubated with the appropriate secondary antibody on ice for 15 minutes. Following the secondary antibody incubation, the cells were again washed 2× with ice-cold FACS buffer and resuspended in a final volume of 200 μL of FACS buffer. Flow cytometry analysis was performed on a FACSCanto system (BD Biosciences). Binding data was expressed as Median Fluorescent Intensity (MFI).
These experiments were performed using anti-MS4A4A antibodies at a concentration of 5 μg/ml and were assayed for cell binding by flow cytometry.

Chain of FcγRIIIa receptor (V158 variant) (P08637 other isoform, or with tags, fused parts or gaps mutant limits assumed): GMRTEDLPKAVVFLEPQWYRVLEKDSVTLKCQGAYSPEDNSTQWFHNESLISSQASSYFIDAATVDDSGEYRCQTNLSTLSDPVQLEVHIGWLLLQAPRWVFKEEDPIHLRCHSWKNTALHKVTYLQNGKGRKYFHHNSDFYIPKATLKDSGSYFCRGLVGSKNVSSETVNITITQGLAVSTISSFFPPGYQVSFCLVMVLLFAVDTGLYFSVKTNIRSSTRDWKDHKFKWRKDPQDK

Binder | OD450 [1] | MFI (human MS4A4A) | other results
B1 | 0.12 | – | –
B2 | – | – | luminescence, ADCP reporter, 3.048316 ng/mL [2]: 51; luminescence, ADCP reporter, 9.144947 ng/mL [2]: 46; luminescence, ADCP reporter, 27.43484 ng/mL [2]: 44; luminescence, ADCP reporter, 82.30453 ng/mL [2]: 66; luminescence, ADCP reporter, 246.9136 ng/mL [2]: 60; luminescence, ADCP reporter, 740.7407 ng/mL [2]: 54; luminescence, ADCP reporter, 2,222.222 ng/mL [2]: 67; luminescence, ADCP reporter, 6,666.667 ng/mL [2]: 242; luminescence, ADCP reporter, 20,000 ng/mL [2]: 154; luminescence, ADCC reporter, 3.048316 ng/mL [3]: 338; luminescence, ADCC reporter, 9.144947 ng/mL [3]: 338; luminescence, ADCC reporter, 27.43484 ng/mL [3]: 341; luminescence, ADCC reporter, 82.30453 ng/mL [3]: 426; luminescence, ADCC reporter, 246.9136 ng/mL [3]: 508; luminescence, ADCC reporter, 740.7407 ng/mL [3]: 623; luminescence, ADCC reporter, 2,222.222 ng/mL [3]: 1020; luminescence, ADCC reporter, 6,666.667 ng/mL [3]: 1180; luminescence, ADCC reporter, 20,000 ng/mL [3]: 1220
B3 | 0.116 | – | –
B4 | 0.121 | – | –
B5 | 0.126 | – | –
B6 | 0.122 | – | –
B7 | 0.118 | – | –
B8 | 1.79 | 350 | –
B9 | 0.162 | – | –
B10 | 0.148 | 56.1 | –
B11 | 0.131 | 47.8 | –
B12 | 1.37 | 513 | –
B13 | 1.66 | 286 | –
B14 | 1.76 | 284 | –
B15 | 0.141 | – | –
B16 | 1.09 | 538 | –
B17 | 1.33 | 218 | –
B18 | 1.65 | 222 | –
B19 | 1.53 | 296 | –
B20 | 1.7 | 309 | –
B21 | 0.719 | 427 | –
B22 | 0.146 | – | –
B23 | 0.132 | – | –
